Results on 1 substance are retold here after article PMC7170532.

The term stoichiometry N denotes the number of molecules, sites or subunits per partner or assembly.

The assay concerns the target latent myostatin (human) (UniProt O14793). The assay can be described thus: SEC-MALS; SRT SEC-500 column, 20 mM phosphate, 200 mM NaCl pH 6.8; latent myostatin alone; 94 kDa observed, 82 kDa calculated.

Chain of latent myostatin (O14793 whole entry, looked up): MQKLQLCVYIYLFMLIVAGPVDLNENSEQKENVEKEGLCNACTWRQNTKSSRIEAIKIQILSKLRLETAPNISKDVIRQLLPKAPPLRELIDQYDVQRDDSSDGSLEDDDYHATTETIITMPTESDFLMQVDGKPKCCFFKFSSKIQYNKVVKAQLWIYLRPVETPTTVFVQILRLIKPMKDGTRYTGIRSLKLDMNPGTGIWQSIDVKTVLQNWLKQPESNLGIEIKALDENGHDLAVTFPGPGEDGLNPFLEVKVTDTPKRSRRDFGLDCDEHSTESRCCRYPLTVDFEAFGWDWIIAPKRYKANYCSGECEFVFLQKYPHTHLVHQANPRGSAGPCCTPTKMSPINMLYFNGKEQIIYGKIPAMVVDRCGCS

“latent myostatin (from UniProt O14793 267-375) (complex)”: the stoichiometry N is 2.
